Data: publication PMC6791870, “Switch of the interactions between the ribosomal stalk and EF1A in the GTP- and GDP-bound conformations” (Scientific Reports, 2019)
Where a chain is given by its changes, count along the chain named. Primed or numbered codes have the meaning given here. Where no end group is shown, it is not given here. FITC′ = fluorescein isothiocyanate label

Key:
Test in all cases: fluorescence polarisation; FITC-labeled PhoP1C14 peptide (50 nM) mixed with 0-160 µM of the complex of each PhoEF1A mutant, GTP and PfuPelota; 20 mM HEPES-KOH pH 7.6, 10 mM MgCl2, 150 mM KCl, 0.1 mg/ml BSA; 25 °C; nonlinear regression, one site specific binding (GraphPad Prism 6); average of three replicates
Conditions in all cases: both partners purified
[1] = molecular target: T1, PhoEF1A Q326A•GTP•PfuPelota complex (Pyrococcus horikoshii | Pyrococcus …, UniProt O59153 1-428, Q326A)
T1 construct: elongation factor aEF1A of Pyrococcus horikoshii (PhoEF1A); complex of the EF1A mutant, GTP and PfuPelota; also called Q326(R329)A; P. horikoshii aEF1A-Q326A
T1 sequence 1: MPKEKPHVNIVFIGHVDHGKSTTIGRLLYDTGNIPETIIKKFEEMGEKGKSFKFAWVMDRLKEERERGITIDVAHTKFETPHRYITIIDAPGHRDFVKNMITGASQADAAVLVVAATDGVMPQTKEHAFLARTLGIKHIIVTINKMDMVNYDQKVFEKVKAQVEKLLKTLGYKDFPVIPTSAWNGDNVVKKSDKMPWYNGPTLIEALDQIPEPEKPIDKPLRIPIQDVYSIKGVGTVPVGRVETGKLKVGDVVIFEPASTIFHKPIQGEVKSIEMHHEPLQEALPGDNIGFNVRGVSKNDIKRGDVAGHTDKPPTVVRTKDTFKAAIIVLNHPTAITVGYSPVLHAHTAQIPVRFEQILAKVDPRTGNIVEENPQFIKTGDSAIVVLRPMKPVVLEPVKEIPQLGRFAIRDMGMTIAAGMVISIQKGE
T1 sequence 2: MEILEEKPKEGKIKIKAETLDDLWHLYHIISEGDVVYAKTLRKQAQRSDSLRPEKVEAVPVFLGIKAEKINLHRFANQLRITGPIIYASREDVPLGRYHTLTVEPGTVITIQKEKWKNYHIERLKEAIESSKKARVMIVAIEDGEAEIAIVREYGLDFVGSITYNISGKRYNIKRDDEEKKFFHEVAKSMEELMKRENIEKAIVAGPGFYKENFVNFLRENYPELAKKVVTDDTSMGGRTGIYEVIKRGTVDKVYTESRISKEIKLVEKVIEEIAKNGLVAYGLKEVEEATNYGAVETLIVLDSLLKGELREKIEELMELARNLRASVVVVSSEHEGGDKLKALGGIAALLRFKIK

[2] = molecular target: T2, PhoEF1A I328S•GTP•PfuPelota complex (Pyrococcus horikoshii | Pyrococcus …, UniProt O59153 1-428, I328S)
T2 construct: elongation factor aEF1A of Pyrococcus horikoshii (PhoEF1A); complex of the EF1A mutant, GTP and PfuPelota; also called I328(F331)S; P. horikoshii aEF1A-I328S
T2 sequence 1: T1 sequence 1 with A326Q, I328S
T2 sequence 2: T1 sequence 2

[3] = molecular target: T3, PhoEF1A R406A•GTP•PfuPelota complex (Pyrococcus horikoshii | Pyrococcus …, UniProt O59153 1-428, R406A)
T3 construct: elongation factor aEF1A of Pyrococcus horikoshii (PhoEF1A); complex of the EF1A mutant, GTP and PfuPelota; also called R406(R409)A; P. horikoshii aEF1A-R406A
T3 sequence 1: T1 sequence 1 with A326Q, R406A
T3 sequence 2: T1 sequence 2

Kd [1]: 11.1 ± 0.8 µM | Kd [2]: 93.3 ± 10.2 µM | Kd [3]: 33 ± 2.1 µM
B1: FITC-labeled C-terminal 14-mer peptide of P. horikoshii aP1 (PhoP1C14) (peptide)
peptide: {FITC′}-SEEEALAGLSALFG
notes: also called FITC-labeled peptide of PhoP1C14; source: synthetic peptide (Hokkaido System Science Co., Ltd)
